Data from US20220048967A1 (published 2022).
Numbered stars: 1 amine (or outer) side, 2 acyl side, 3 side chain; on linkers, the order of the positions; unused ones are H or OH. Square brackets hold non-standard residues; d marks the D form. Side chains are listed from the residue outwards. Ends that are not written are not given here. * marks the point of attachment. C20 diacid = O=C(O)CCCCCCCCCCCCCCCCCCC(=O)*; γGlu = O=C(O)[C@H](CCC(=O)[*:2])N[*:1]; αMeP = C[C@@]1(C(=O)O)CCCN1; AEEA = NCCOCCOCC(=O)O

Columns and labels:
[1] = target: T1, human gastric inhibitory peptide receptor (GIPR) (human, UniProt P48546 22-466); experiment: cell-based or functional assay
T1 sequence (looked up): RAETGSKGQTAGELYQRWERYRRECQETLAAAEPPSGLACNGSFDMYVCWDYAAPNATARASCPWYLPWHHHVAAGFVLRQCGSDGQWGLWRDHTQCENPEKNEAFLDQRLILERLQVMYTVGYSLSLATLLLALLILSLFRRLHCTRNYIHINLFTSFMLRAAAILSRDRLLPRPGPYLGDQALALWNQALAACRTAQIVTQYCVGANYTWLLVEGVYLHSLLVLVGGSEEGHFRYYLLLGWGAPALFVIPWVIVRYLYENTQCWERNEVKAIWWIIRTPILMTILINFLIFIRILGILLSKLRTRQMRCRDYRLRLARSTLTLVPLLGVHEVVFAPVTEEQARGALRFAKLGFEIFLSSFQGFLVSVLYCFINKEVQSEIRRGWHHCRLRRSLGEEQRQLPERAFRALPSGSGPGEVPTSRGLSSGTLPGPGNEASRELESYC

[2] = target: human GLP-1 receptor (GLP-1R) (human, UniProt P43220 24-463); experiment: cell-based or functional assay

B1: Example 195 (peptide)
peptide: Y[αMeP]EGTFTSDYSILLDRK([AEEA-AEEA-γGlu-C20 diacid])AQQAFIEYLIEGGPSSGAPPPS-NH2
modifications: N-terminus assumed
SMILES: CC[C@H](C)[C@H](NC(=O)[C@H](CC(C)C)NC(=O)[C@H](Cc1ccc(O)cc1)NC(=O)[C@H](CCC(=O)O)NC(=O)[C@@H](NC(=O)[C@H](Cc1ccccc1)NC(=O)[C@H](C)NC(=O)[C@H](CCC(N)=O)NC(=O)[C@H](CCC(N)=O)NC(=O)[C@H](C)NC(=O)[C@H](CCCCNC(=O)COCCOCCNC(=O)COCCOCCNC(=O)CC[C@H](NC(=O)CCCCCCCCCCCCCCCCCCC(=O)O)C(=O)O)NC(=O)[C@H](CCCNC(=N)N)NC(=O)[C@H](CC(=O)O)NC(=O)[C@H](CC(C)C)NC(=O)[C@H](CC(C)C)NC(=O)[C@@H](NC(=O)[C@H](CO)NC(=O)[C@H](Cc1ccc(O)cc1)NC(=O)[C@H](CC(=O)O)NC(=O)[C@H](CO)NC(=O)[C@@H](NC(=O)[C@H](Cc1ccccc1)NC(=O)[C@@H](NC(=O)CNC(=O)[C@H](CCC(=O)O)NC(=O)[C@]1(C)CCCN1C(=O)[C@@H](N)Cc1ccc(O)cc1)[C@@H](C)O)[C@@H](C)O)[C@@H](C)CC)[C@@H](C)CC)C(=O)N[C@@H](CCC(=O)O)C(=O)NCC(=O)NCC(=O)N1CCC[C@H]1C(=O)N[C@@H](CO)C(=O)N[C@@H](CO)C(=O)NCC(=O)N[C@@H](C)C(=O)N1CCC[C@H]1C(=O)N1CCC[C@H]1C(=O)N1CCC[C@H]1C(=O)N[C@@H](CO)C(N)=O
hGIPR cAMP EC50 ratio [1]: 0.936
hGIPR cAMP Rel EC50 [1]: 0.193 nM
hGLP1R cAMP EC50 ratio [2]: 0.602
hGLP1R cAMP Rel EC50 [2]: 0.0966 nM

B2: Example 194 (peptide)
peptide: Y[αMeP]EGTFTSDYSILLDEK([AEEA-AEEA-γGlu-C20 diacid])AQHAFIEYLIEGGPSSGAPPPS-NH2
modifications: N-terminus assumed
SMILES: CC[C@H](C)[C@H](NC(=O)[C@H](CC(C)C)NC(=O)[C@H](Cc1ccc(O)cc1)NC(=O)[C@H](CCC(=O)O)NC(=O)[C@@H](NC(=O)[C@H](Cc1ccccc1)NC(=O)[C@H](C)NC(=O)[C@H](Cc1c[nH]cn1)NC(=O)[C@H](CCC(N)=O)NC(=O)[C@H](C)NC(=O)[C@H](CCCCNC(=O)COCCOCCNC(=O)COCCOCCNC(=O)CC[C@H](NC(=O)CCCCCCCCCCCCCCCCCCC(=O)O)C(=O)O)NC(=O)[C@H](CCC(=O)O)NC(=O)[C@H](CC(=O)O)NC(=O)[C@H](CC(C)C)NC(=O)[C@H](CC(C)C)NC(=O)[C@@H](NC(=O)[C@H](CO)NC(=O)[C@H](Cc1ccc(O)cc1)NC(=O)[C@H](CC(=O)O)NC(=O)[C@H](CO)NC(=O)[C@@H](NC(=O)[C@H](Cc1ccccc1)NC(=O)[C@@H](NC(=O)CNC(=O)[C@H](CCC(=O)O)NC(=O)[C@]1(C)CCCN1C(=O)[C@@H](N)Cc1ccc(O)cc1)[C@@H](C)O)[C@@H](C)O)[C@@H](C)CC)[C@@H](C)CC)C(=O)N[C@@H](CCC(=O)O)C(=O)NCC(=O)NCC(=O)N1CCC[C@H]1C(=O)N[C@@H](CO)C(=O)N[C@@H](CO)C(=O)NCC(=O)N[C@@H](C)C(=O)N1CCC[C@H]1C(=O)N1CCC[C@H]1C(=O)N1CCC[C@H]1C(=O)N[C@@H](CO)C(N)=O
hGIPR cAMP EC50 ratio [1]: 0.427
hGIPR cAMP Rel EC50 [1]: 0.423 nM
hGLP1R cAMP EC50 ratio [2]: 0.205
hGLP1R cAMP Rel EC50 [2]: 0.284 nM

B3: Example 193 (peptide)
peptide: Y[αMeP]EGTFTSDYSILLDEK([AEEA-AEEA-γGlu-C20 diacid])AQQAFIEYLIEGGPSSGAPPPS-NH2
modifications: N-terminus assumed
SMILES: CC[C@H](C)[C@H](NC(=O)[C@H](CC(C)C)NC(=O)[C@H](Cc1ccc(O)cc1)NC(=O)[C@H](CCC(=O)O)NC(=O)[C@@H](NC(=O)[C@H](Cc1ccccc1)NC(=O)[C@H](C)NC(=O)[C@H](CCC(N)=O)NC(=O)[C@H](CCC(N)=O)NC(=O)[C@H](C)NC(=O)[C@H](CCCCNC(=O)COCCOCCNC(=O)COCCOCCNC(=O)CC[C@H](NC(=O)CCCCCCCCCCCCCCCCCCC(=O)O)C(=O)O)NC(=O)[C@H](CCC(=O)O)NC(=O)[C@H](CC(=O)O)NC(=O)[C@H](CC(C)C)NC(=O)[C@H](CC(C)C)NC(=O)[C@@H](NC(=O)[C@H](CO)NC(=O)[C@H](Cc1ccc(O)cc1)NC(=O)[C@H](CC(=O)O)NC(=O)[C@H](CO)NC(=O)[C@@H](NC(=O)[C@H](Cc1ccccc1)NC(=O)[C@@H](NC(=O)CNC(=O)[C@H](CCC(=O)O)NC(=O)[C@]1(C)CCCN1C(=O)[C@@H](N)Cc1ccc(O)cc1)[C@@H](C)O)[C@@H](C)O)[C@@H](C)CC)[C@@H](C)CC)C(=O)N[C@@H](CCC(=O)O)C(=O)NCC(=O)NCC(=O)N1CCC[C@H]1C(=O)N[C@@H](CO)C(=O)N[C@@H](CO)C(=O)NCC(=O)N[C@@H](C)C(=O)N1CCC[C@H]1C(=O)N1CCC[C@H]1C(=O)N1CCC[C@H]1C(=O)N[C@@H](CO)C(N)=O
hGIPR cAMP EC50 ratio [1]: 0.538
hGIPR cAMP Rel EC50 [1]: 0.336 nM
hGLP1R cAMP EC50 ratio [2]: 0.359
hGLP1R cAMP Rel EC50 [2]: 0.162 nM

B4: Example 184 (peptide)
peptide: YXEGTXTSDXSIXLDEKAQXEFIXYLIEGGPSSGAPPPS
modifications: Y-Aib-EGT-αMeF(2F)-TSD-(D-Tyr)-SI-αMeF-LDEK((2-[2-(2-Amino-ethoxy)-ethoxy]-acetyl)2-(γ-Glu)-CO-(CH2)18-CO2H)AQ-Aib-EFI-(D-Glu)-YLIEGGPSSGAPPPS-NH2
hGIPR cAMP EC50 ratio [1]: 2.45
hGIPR cAMP Rel EC50 [1]: 0.0477 nM
hGLP1R cAMP EC50 ratio [2]: 0.135
hGLP1R cAMP Rel EC50 [2]: 0.392 nM

B5: Example 191 (peptide)
peptide: YXEGTXTSDVSIXLDEKAQXEFIXYLIEGGPSSGAPPPS
modifications: Y-Aib-EGT-αMeF(2F)-TSDVSI-αMeF-LDEK((2-[2-(2-Amino-ethoxy)-ethoxy]-acetyl)2-(γ-Glu)-CO-(CH2)18-CO2H)AQ-Aib-EFI-(D-Glu)-YLIEGGPSSGAPPPS-NH2
hGIPR cAMP EC50 ratio [1]: 2.53
hGIPR cAMP Rel EC50 [1]: 0.0645 nM
hGLP1R cAMP EC50 ratio [2]: 1.6
hGLP1R cAMP Rel EC50 [2]: 0.0356 nM

B6: Example 185 (peptide)
peptide: YXEGTXTSDXSIXLDEKAQXEFIXYLIEGGPSSGAPPPS
modifications: Y-Aib-EGT-αMeF(2F)-TSD-(D-His)-SI-αMeF-LDEK((2-[2-(2-Amino-ethoxy)-ethoxy]-acetyl)2-(γ-Glu)-CO-(CH2)18-CO2H)AQ-Aib-EFI-(D-Glu)-YLIEGGPSSGAPPPS-NH2
hGIPR cAMP EC50 ratio [1]: 0.185
hGIPR cAMP Rel EC50 [1]: 0.632 nM
hGLP1R cAMP EC50 ratio [2]: 0.00739
hGLP1R cAMP Rel EC50 [2]: 7.16 nM

B7: Example 189 (peptide)
peptide: YXEGTXTSDXSIXLDEKAQXEFIXYLIEGGPSSGAPPPS
modifications: Y-Aib-EGT-αMeF(2F)-TSD-4Pal-SI-αMeF-LDEK((2-[2-(2-Amino-ethoxy)-ethoxy]-acetyl)2-(γ-Glu)-CO-(CH2)18-CO2H)AQ-Aib-EFI-Aib-YLIEGGPSSGAPPPS-NH2
hGIPR cAMP EC50 ratio [1]: 2.41
hGIPR cAMP Rel EC50 [1]: 0.0775 nM
hGLP1R cAMP EC50 ratio [2]: 0.668
hGLP1R cAMP Rel EC50 [2]: 0.0608 nM

B8: Example 187 (peptide)
peptide: YXEGTXTSDQSIXLDEKAQXEFIXYLIEGGPSSGAPPPS
modifications: Y-Aib-EGT-αMeF(2F)-TSDQSI-αMeF-LDEK((2-[2-(2-Amino-ethoxy)-ethoxy]-acetyl)2-(γ-Glu)-CO-(CH2)18-CO2H)AQ-Aib-EFI-(D-Glu)-YLIEGGPSSGAPPPS-NH2
hGIPR cAMP EC50 ratio [1]: 4.61
hGIPR cAMP Rel EC50 [1]: 0.0371 nM
hGLP1R cAMP EC50 ratio [2]: 0.702
hGLP1R cAMP Rel EC50 [2]: 0.0577 nM

B9: Example 192 (peptide)
peptide: YXEGTXTSDASIXLDEKAQXEFIXYLIEGGPSSGAPPPS
modifications: Y-Aib-EGT-αMeF(2F)-TSDASI-αMeF-LDEK((2-[2-(2-Amino-ethoxy)-ethoxy]-acetyl)2-(γ-Glu)-CO-(CH2)18-CO2H)AQ-Aib-EFI-(D-Glu)-YLIEGGPSSGAPPPS-NH2
hGIPR cAMP EC50 ratio [1]: 2.83
hGIPR cAMP Rel EC50 [1]: 0.0615 nM
hGLP1R cAMP EC50 ratio [2]: 1.73
hGLP1R cAMP Rel EC50 [2]: 0.0289 nM

B10: Example 188 (peptide)
peptide: YXEGTXTSDXSIXLDEKAQXEFIXYLIEGGPSSGAPPPS
modifications: Y-Aib-EGT-αMeF(2F)-TSD-3Pal-SI-αMeF-LDEK((2-[2-(2-Amino-ethoxy)-ethoxy]-acetyl)2-(γ-Glu)-CO-(CH2)18-CO2H)AQ-Aib-EFI-Aib-YLIEGGPSSGAPPPS-NH2
hGIPR cAMP EC50 ratio [1]: 0.969
hGIPR cAMP Rel EC50 [1]: 0.121 nM
hGLP1R cAMP EC50 ratio [2]: 0.408
hGLP1R cAMP Rel EC50 [2]: 0.13 nM

B11: Example 190 (peptide)
peptide: HXEGTXTSDXSIXLDEKAQXEFIXYLIEGGPSSGAPPPS
modifications: H-Aib-EGT-αMeF(2F)-TSD-3Pal-SI-αMeF-LDEK((2-[2-(2-Amino-ethoxy)-ethoxy]-acetyl)2-(γ-Glu)-CO-(CH2)18-CO2H)AQ-Aib-EFI-(D-Glu)-YLIEGGPSSGAPPPS-NH2
hGIPR cAMP EC50 ratio [1]: 0.158
hGIPR cAMP Rel EC50 [1]: 0.738 nM
hGLP1R cAMP EC50 ratio [2]: 2.2
hGLP1R cAMP Rel EC50 [2]: 0.0241 nM

B12: Example 196 (peptide)
peptide: Y[αMeP]EGTFTSDYSILLDRK([AEEA-AEEA-γGlu-C20 diacid])AQHAFIEYLIEGGPSSGAPPPS-NH2
modifications: N-terminus assumed
SMILES: CC[C@H](C)[C@H](NC(=O)[C@H](CC(C)C)NC(=O)[C@H](Cc1ccc(O)cc1)NC(=O)[C@H](CCC(=O)O)NC(=O)[C@@H](NC(=O)[C@H](Cc1ccccc1)NC(=O)[C@H](C)NC(=O)[C@H](Cc1c[nH]cn1)NC(=O)[C@H](CCC(N)=O)NC(=O)[C@H](C)NC(=O)[C@H](CCCCNC(=O)COCCOCCNC(=O)COCCOCCNC(=O)CC[C@H](NC(=O)CCCCCCCCCCCCCCCCCCC(=O)O)C(=O)O)NC(=O)[C@H](CCCNC(=N)N)NC(=O)[C@H](CC(=O)O)NC(=O)[C@H](CC(C)C)NC(=O)[C@H](CC(C)C)NC(=O)[C@@H](NC(=O)[C@H](CO)NC(=O)[C@H](Cc1ccc(O)cc1)NC(=O)[C@H](CC(=O)O)NC(=O)[C@H](CO)NC(=O)[C@@H](NC(=O)[C@H](Cc1ccccc1)NC(=O)[C@@H](NC(=O)CNC(=O)[C@H](CCC(=O)O)NC(=O)[C@]1(C)CCCN1C(=O)[C@@H](N)Cc1ccc(O)cc1)[C@@H](C)O)[C@@H](C)O)[C@@H](C)CC)[C@@H](C)CC)C(=O)N[C@@H](CCC(=O)O)C(=O)NCC(=O)NCC(=O)N1CCC[C@H]1C(=O)N[C@@H](CO)C(=O)N[C@@H](CO)C(=O)NCC(=O)N[C@@H](C)C(=O)N1CCC[C@H]1C(=O)N1CCC[C@H]1C(=O)N1CCC[C@H]1C(=O)N[C@@H](CO)C(N)=O
hGIPR cAMP EC50 ratio [1]: 0.653
hGIPR cAMP Rel EC50 [1]: 0.277 nM
hGLP1R cAMP EC50 ratio [2]: 0.332
hGLP1R cAMP Rel EC50 [2]: 0.175 nM
